Experimental findings from patent US20230235012A1 (ALPINE IMMUNE SCIENCES, published 2023) are described below.

Assay [1] deals with T1, human CTLA-4 (human, UniProt P16410 36-223).
T1 construct: whole, on cells
The experiment in a line: flow cytometry, transfected cells; protein from 293. Note: test concentration or dose not given here.

In assay [2] the target is T2, human ICOS (human, UniProt Q9Y6W8 21-199).
T2 construct: whole, on cells
T2 sequence (looked up): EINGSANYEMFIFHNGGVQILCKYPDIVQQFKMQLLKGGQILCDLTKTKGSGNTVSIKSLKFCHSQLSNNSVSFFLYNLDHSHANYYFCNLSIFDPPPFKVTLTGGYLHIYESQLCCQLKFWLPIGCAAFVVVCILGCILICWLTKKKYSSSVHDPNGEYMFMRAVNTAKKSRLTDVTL
Described as above.

In assay [3] the target is T3, human CD28 (human, UniProt P10747 19-220).
T3 construct: whole, on cells
Described as above.

Assay [4] concerns the target T1, human CTLA-4. Kind of assay: flow cytometry, transfected cells; protein from CHO. (A flow cytometer gives signals particle by particle.)
The target of assay [5] is T2, human ICOS. The description is as above.
Assay [6] deals with T3, human CD28. Described as above.
Assay [7] deals with T1, human CTLA-4. Kind of assay: flow cytometry, transfected Expi293 cells.
The target of assay [8] is T2, human ICOS. Kind of assay: flow cytometry, transfected Expi293 cells.
The target in assay [9] is T3, human CD28. The experiment in a line: flow cytometry, transfected Expi293 cells.

T1 sequence (P16410 36-223): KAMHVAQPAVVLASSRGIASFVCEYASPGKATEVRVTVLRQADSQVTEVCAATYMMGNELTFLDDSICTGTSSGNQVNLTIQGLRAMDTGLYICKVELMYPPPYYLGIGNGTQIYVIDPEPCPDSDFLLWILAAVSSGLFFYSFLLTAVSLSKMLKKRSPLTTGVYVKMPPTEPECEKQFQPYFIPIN

B1: ICOSL ECD with N52H/N57Y/Q100R/C198R linked to Fc C220S/L234A/L235E/G237A (Table 30D) (Fc fusion)
chain: DTQEKEVRAMVGSDVELSCACPEGSRFDLNDVYVYWQTSESKTVVTYHIPQHSSLEYVDSRYRNRALMSPAGMLRGDFSLRLFNVTPQDEQKFHCLVLSRSLGFQEVLSVEVTLHVAANFSVPVVSAPHSPSQDELTFTCTSINGYPRPNVYWINKTDNSLLDQALQNDTVFLNMRGLYDVVSVLRIARTPSVNIGCRIENVLLQQNLTVGSQTGNDIGERDKITENPVSTGEKNAATEPKSSDKTHTCPPCPAPEAEGAPSVFLFPPKPKDTLMISRTPEVTCVVVDVSHEDPEVKFNWYVDGVEVHNAKTKPREEQYNSTYRVVSVLTVLHQDWLNGKEYKCKVSNKALPAPIEKTISKAKGQPREPQVYTLPPSREEMTKNQVSLTCLVKGFYPSDIAVEWESNGQPENNYKTTPPVLDSDGSFFLYSKLTVDKSRWQQGNVFSCSVMHEALHNHYTQKSLSLSPGK
For B1, the MFI amounted to 8720 MFI in assay [1]; 16700 MFI in assay [2]; 13700 MFI in assay [3]; 8750 MFI in assay [4]; 7700 MFI in assay [5]; 12900 MFI in assay [6].

B2: ICOSL ECD N52H/N57Y/Q100R/F172S - G4S - Fc C220S/L234A/L235E/G237A (Fc fusion)
chain: DTQEKEVRAMVGSDVELSCACPEGSRFDLNDVYVYWQTSESKTVVTYHIPQHSSLEYVDSRYRNRALMSPAGMLRGDFSLRLFNVTPQDEQKFHCLVLSRSLGFQEVLSVEVTLHVAANFSVPVVSAPHSPSQDELTFTCTSINGYPRPNVYWINKTDNSLLDQALQNDTVSLNMRGLYDVVSVLRIARTPSVNIGCCIENVLLQQNLTVGSQTGNDIGERDKITENPVSTGEKNAATGGGGSEPKSSDKTHTCPPCPAPEAEGAPSVFLFPPKPKDTLMISRTPEVTCVVVDVSHEDPEVKFNWYVDGVEVHNAKTKPREEQYNSTYRVVSVLTVLHQDWLNGKEYKCKVSNKALPAPIEKTISKAKGQPREPQVYTLPPSREEMTKNQVSLTCLVKGFYPSDIAVEWESNGQPENNYKTTPPVLDSDGSFFLYSKLTVDKSRWQQGNVFSCSVMHEALHNHYTQKSLSLSPGK
In the case of B2, the MFI is 213000 MFI in assay [7], 107000 MFI in assay [8] and 67600 MFI in assay [9]. Further, the results for the “MFI ratio to WT” value in assay [7], in assay [8] and in assay [9] were 22.7 fold, 1.4 fold and 12.9 fold, respectively.

B3: ICOSL ECD N52H/N57Y/Q100P - G4S - Fc C220S/L234A/L235E/G237A (Fc fusion)
chain: DTQEKEVRAMVGSDVELSCACPEGSRFDLNDVYVYWQTSESKTVVTYHIPQHSSLEYVDSRYRNRALMSPAGMLRGDFSLRLFNVTPQDEQKFHCLVLSPSLGFQEVLSVEVTLHVAANFSVPVVSAPHSPSQDELTFTCTSINGYPRPNVYWINKTDNSLLDQALQNDTVFLNMRGLYDVVSVLRIARTPSVNIGCCIENVLLQQNLTVGSQTGNDIGERDKITENPVSTGEKNAATGGGGSEPKSSDKTHTCPPCPAPEAEGAPSVFLFPPKPKDTLMISRTPEVTCVVVDVSHEDPEVKFNWYVDGVEVHNAKTKPREEQYNSTYRVVSVLTVLHQDWLNGKEYKCKVSNKALPAPIEKTISKAKGQPREPQVYTLPPSREEMTKNQVSLTCLVKGFYPSDIAVEWESNGQPENNYKTTPPVLDSDGSFFLYSKLTVDKSRWQQGNVFSCSVMHEALHNHYTQKSLSLSPGK
B3: the MFI was found to be 161000 MFI in assay [7], 104000 MFI in assay [8] and 69900 MFI in assay [9]. For the same molecule, the entries for the “MFI ratio to WT” value in assay [7], in [8] and in [9] were 17.1 fold, 1.3 fold and 13.4 fold, respectively.

B4: ICOSL ECD N52H/N57Y/Q100P - G4S - Fc C220S/E233P/L234V/L235A/G236del/S267K (Fc fusion)
chain: DTQEKEVRAMVGSDVELSCACPEGSRFDLNDVYVYWQTSESKTVVTYHIPQHSSLEYVDSRYRNRALMSPAGMLRGDFSLRLFNVTPQDEQKFHCLVLSPSLGFQEVLSVEVTLHVAANFSVPVVSAPHSPSQDELTFTCTSINGYPRPNVYWINKTDNSLLDQALQNDTVFLNMRGLYDVVSVLRIARTPSVNIGCCIENVLLQQNLTVGSQTGNDIGERDKITENPVSTGEKNAATGGGGSEPKSSDKTHTCPPCPAPPVAGPSVFLFPPKPKDTLMISRTPEVTCVVVDVKHEDPEVKFNWYVDGVEVHNAKTKPREEQYNSTYRVVSVLTVLHQDWLNGKEYKCKVSNKALPAPIEKTISKAKGQPREPQVYTLPPSREEMTKNQVSLTCLVKGFYPSDIAVEWESNGQPENNYKTTPPVLDSDGSFFLYSKLTVDKSRWQQGNVFSCSVMHEALHNHYTQKSLSLSPGK
In the case of B4, the MFI in assay [7] was found to be 188000 MFI; in assay [8], 93400 MFI.

B5: ICOSL ECD N52H/N57Y/Q100R/F172S - AAA - Fc C220S/E233P/L234V/L235A/G236del/S267K (Fc fusion)
chain: DTQEKEVRAMVGSDVELSCACPEGSRFDLNDVYVYWQTSESKTVVTYHIPQHSSLEYVDSRYRNRALMSPAGMLRGDFSLRLFNVTPQDEQKFHCLVLSRSLGFQEVLSVEVTLHVAANFSVPVVSAPHSPSQDELTFTCTSINGYPRPNVYWINKTDNSLLDQALQNDTVSLNMRGLYDVVSVLRIARTPSVNIGCCIENVLLQQNLTVGSQTGNDIGERDKITENPVSTGEKNAATAAAEPKSSDKTHTCPPCPAPPVAGPSVFLFPPKPKDTLMISRTPEVTCVVVDVKHEDPEVKFNWYVDGVEVHNAKTKPREEQYNSTYRVVSVLTVLHQDWLNGKEYKCKVSNKALPAPIEKTISKAKGQPREPQVYTLPPSREEMTKNQVSLTCLVKGFYPSDIAVEWESNGQPENNYKTTPPVLDSDGSFFLYSKLTVDKSRWQQGNVFSCSVMHEALHNHYTQKSLSLSPGK
Regarding B5, the MFI in [7] was 193000 MFI; in [8] it was 104000 MFI; in assay [9] it was 57300 MFI. The figures for the “MFI ratio to WT” value in assay [7], in assay [8] and in assay [9] were 20.5 fold, 1.3 fold and 10.9 fold, respectively.

B6: ICOSL ECD N52H/N57Y/Q100P - AAA - Fc C220S/E233P/L234V/L235A/G236del/S267K (Fc fusion)
chain: DTQEKEVRAMVGSDVELSCACPEGSRFDLNDVYVYWQTSESKTVVTYHIPQHSSLEYVDSRYRNRALMSPAGMLRGDFSLRLFNVTPQDEQKFHCLVLSPSLGFQEVLSVEVTLHVAANFSVPVVSAPHSPSQDELTFTCTSINGYPRPNVYWINKTDNSLLDQALQNDTVFLNMRGLYDVVSVLRIARTPSVNIGCCIENVLLQQNLTVGSQTGNDIGERDKITENPVSTGEKNAATAAAEPKSSDKTHTCPPCPAPPVAGPSVFLFPPKPKDTLMISRTPEVTCVVVDVKHEDPEVKFNWYVDGVEVHNAKTKPREEQYNSTYRVVSVLTVLHQDWLNGKEYKCKVSNKALPAPIEKTISKAKGQPREPQVYTLPPSREEMTKNQVSLTCLVKGFYPSDIAVEWESNGQPENNYKTTPPVLDSDGSFFLYSKLTVDKSRWQQGNVFSCSVMHEALHNHYTQKSLSLSPGK
As for B6, the MFI in assay [7] worked out at 315000 MFI; in [8], 103000 MFI; in assay [9], 69600 MFI. For the same molecule, the figures for the “MFI ratio to WT” value in [7], in assay [8] and in assay [9] were 33.5 fold, 1.3 fold and 13.3 fold, respectively.

B7: ICOSL ECD N52H/N57Y/Q100P - no linker - Fc C220S/E233P/L234V/L235A/G236del/S267K (Fc fusion)
chain: DTQEKEVRAMVGSDVELSCACPEGSRFDLNDVYVYWQTSESKTVVTYHIPQHSSLEYVDSRYRNRALMSPAGMLRGDFSLRLFNVTPQDEQKFHCLVLSPSLGFQEVLSVEVTLHVAANFSVPVVSAPHSPSQDELTFTCTSINGYPRPNVYWINKTDNSLLDQALQNDTVFLNMRGLYDVVSVLRIARTPSVNIGCCIENVLLQQNLTVGSQTGNDIGERDKITENPVSTGEKNAATEPKSSDKTHTCPPCPAPPVAGPSVFLFPPKPKDTLMISRTPEVTCVVVDVKHEDPEVKFNWYVDGVEVHNAKTKPREEQYNSTYRVVSVLTVLHQDWLNGKEYKCKVSNKALPAPIEKTISKAKGQPREPQVYTLPPSREEMTKNQVSLTCLVKGFYPSDIAVEWESNGQPENNYKTTPPVLDSDGSFFLYSKLTVDKSRWQQGNVFSCSVMHEALHNHYTQKSLSLSPGK
notes: direct fusion, linker 'None'
In the case of B7, in assay [8], the MFI worked out at 98500 MFI.

B8: ICOSL ECD N52H/N57Y/Q100P - AAA - Fc C220S/L234A/L235E/G237A (Fc fusion)
chain: DTQEKEVRAMVGSDVELSCACPEGSRFDLNDVYVYWQTSESKTVVTYHIPQHSSLEYVDSRYRNRALMSPAGMLRGDFSLRLFNVTPQDEQKFHCLVLSPSLGFQEVLSVEVTLHVAANFSVPVVSAPHSPSQDELTFTCTSINGYPRPNVYWINKTDNSLLDQALQNDTVFLNMRGLYDVVSVLRIARTPSVNIGCCIENVLLQQNLTVGSQTGNDIGERDKITENPVSTGEKNAATAAAEPKSSDKTHTCPPCPAPEAEGAPSVFLFPPKPKDTLMISRTPEVTCVVVDVSHEDPEVKFNWYVDGVEVHNAKTKPREEQYNSTYRVVSVLTVLHQDWLNGKEYKCKVSNKALPAPIEKTISKAKGQPREPQVYTLPPSREEMTKNQVSLTCLVKGFYPSDIAVEWESNGQPENNYKTTPPVLDSDGSFFLYSKLTVDKSRWQQGNVFSCSVMHEALHNHYTQKSLSLSPGK
Take B8: the values for the MFI in assay [7], in assay [8] and in assay [9] were 171000 MFI, 97100 MFI and 68700 MFI, respectively. Further, the “MFI ratio to WT” value in [7] was 18.2 fold; in assay [8] it was 1.2 fold; in assay [9], 13.1 fold.

B9: ICOSL ECD N52H/N57Y/Q100R/F172S - AAA - Fc C220S/L234A/L235E/G237A (Fc fusion)
chain: DTQEKEVRAMVGSDVELSCACPEGSRFDLNDVYVYWQTSESKTVVTYHIPQHSSLEYVDSRYRNRALMSPAGMLRGDFSLRLFNVTPQDEQKFHCLVLSRSLGFQEVLSVEVTLHVAANFSVPVVSAPHSPSQDELTFTCTSINGYPRPNVYWINKTDNSLLDQALQNDTVSLNMRGLYDVVSVLRIARTPSVNIGCCIENVLLQQNLTVGSQTGNDIGERDKITENPVSTGEKNAATAAAEPKSSDKTHTCPPCPAPEAEGAPSVFLFPPKPKDTLMISRTPEVTCVVVDVSHEDPEVKFNWYVDGVEVHNAKTKPREEQYNSTYRVVSVLTVLHQDWLNGKEYKCKVSNKALPAPIEKTISKAKGQPREPQVYTLPPSREEMTKNQVSLTCLVKGFYPSDIAVEWESNGQPENNYKTTPPVLDSDGSFFLYSKLTVDKSRWQQGNVFSCSVMHEALHNHYTQKSLSLSPGK
B9: the MFI in [7] came out at 194000 MFI; in assay [8] it was 105000 MFI; in assay [9] it was 65500 MFI. For the same molecule, the “MFI ratio to WT” value in assay [7] is 20.6 fold; in [8], 1.3 fold; in assay [9], 12.5 fold.
